{"source": "paper doi:10.1101/2023.05.06.539669", "about": "(bioRxiv, 2023)", "binders": {"B1": {"name": "S-016-1034 (CDRI-S-016-1034), 11-mer peptide derived from the RAS-Binding-Domain of mSIN1 (peptide)", "peptide": "YRLEKQSEPNV-NH2"}}, "target": "bacterially expressed wild-type HRAS (human, UniProt P01112 1-189)", "sequence (P01112 whole entry)": "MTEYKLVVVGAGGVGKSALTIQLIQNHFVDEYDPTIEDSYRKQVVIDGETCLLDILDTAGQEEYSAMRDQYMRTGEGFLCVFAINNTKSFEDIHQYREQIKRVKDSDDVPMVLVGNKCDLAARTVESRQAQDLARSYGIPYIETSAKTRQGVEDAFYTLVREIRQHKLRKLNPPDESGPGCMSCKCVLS", "assay": "ITC", "note": "Several values for one entry are separate records, joined by “and”; a condition that tells them apart may be missing. Identical values can stand only once. Where no end group is shown, it is not given here."}
{"binder": "B1", "values": [{"measurement": "Kd", "result": "9.54 µM and 8.95 µM"}]}
